Assay results taken from patent publication US20050142135A1, “Agents and methods for modulating interactions between gonadotropin hormones and receptors” (University of Kentucky Research Foundation, priority 2003, published 2005).
Positions count from the first letter of the chain named. Values belong to the molecule of their own block, whether it stands above or below them.

Legend:
human FSHR [1] = experiment: ^125I-FSH binding to wild type and mutant FSH receptors on intact stably transfected HEK 293 cells; conditions: for FSH binding / Kd compared with the wild type receptor, in words: intact HEK 293 cells
Description: (§1) Mutant FSHR cDNAs were prepared in the pSELECT vector using the Altered Sites Mutagenesis system (Promega), sequenced on a Beckman CEQ 2000XL capillary sequencer, subcloned into pcDNA3 (Invitrogen), and sequenced again to verify mutation sequences. […] Wild type and mutant receptor constructs were transfected into HEK 293 cells by the calcium phosphate method as previously described. Stable cell lines were established in minimum essential medium containing 10% horse serum and 500 μg/ml of G418. These cells were used for hormone binding, cAMP production. All assays were carried out in duplicate and repeated 4-5 times, and means±S.D. were calculated.
(§2) The Kd values were determined by Scatchard plots. For intracellular cAMP assay, cells were washed twice with Dulbecco's modified Eagle's medium and incubated in the medium containing 0.1 μg/ml isobutylmethylxanthine for 15 mm. Increasing concentrations of FSH were then added and incubation was continued for 45 mm at 37° C. After removing the medium, the cells were rinsed once with fresh medium without isobutylmethylxanthine, lysed in 70% ethanol, freeze-thawed in liquid nitrogen, and scraped.
Each mutant human FSHR cDNA was prepared in a pSELECT vector using the non-PCR based Altered Sites Mutagenesis System (Promega), sequenced on a Beckman CEQ 2000XL capillary sequencer and subcloned into pcDNA3 (Invitrogen) as described. After subcloning pcDNA3 the mutant cDNAs were sequenced again. Plasmids were transfected into human embryonic kidney (HEK) 293 cells by the calcium phosphate method. Stable cell lines were established in minimum essential medium containing 10% horse serum and 500 μg/ml of G-418, and then used for hormone binding and cAMP assay. All assays were carried out in duplicate and repeated 4-6 times. Means and standard variations were calculated.
(§3) Human FSH (the National Hormone and Pituitary Program) was radioiodinated as previously described for radioiodination of hCG. […] The Kd values were determined by Scatchard plots. Truncated exodomain was solubilized in Nonidet P-40 and assayed for hormone binding as described previously. For intracellular cAMP assay, cells were washed twice with Dulbecco's modified Eagle's media and incubated in the media containing isobutylmethylxanthine (0.1 mg/ml) for 15 minutes. Increasing concentrations of FSH were then added and the incubation was continued for 45 minutes at 37° C. After removing the media, the cells were rinsed once with fresh media without isobutylmethylxanthine, lysed in 70% ethanol, freeze-thawed in liquid nitrogen, and scraped. […] Exoloop 3 of FSHR was modeled based on the crystal structure of rhodopsin as a template.

human FSHR [2] = experiment: FSH dependent intracellular cAMP assay, wild type and mutant FSHR in HEK 293 cells; assay type: cell-based; conditions: for FSH dependent cAMP induction / EC50 compared with the wild type receptor, in words: HEK 293 cells
Description: as §1, §2, §3

human FSHR [3] = experiment: Inositol phosphate assay, FSHR exoloop 3 mutants in HEK 293 cells, FSH stimulated; assay type: cell-based; conditions: for IPt (CPM): total IP production in response to increasing concentrations of FSH, NS = not significant
Description: Stable cells were plated in 12 well plates and grown in inositol free DMEM (Atlanta Biologicals) supplemented with 8% heat-inactivated horse serum and 2 μCi/ml ^3H-inositol (N EN) for 48 h to 40-50% confluency. After removing the medium, the cells were incubated in 1 ml of fresh wash buffer consisting of DMEM without inositol and 15 mM HEPES (pH 7.3) for 1 hour at 37° C. This medium was removed and 0.3 ml wash buffer containing 20 mM LiCl was added and incubated for 15 minutes at 37° C. After the cells were stimulated with increasing concentrations of hormone for 30 minutes at 37° C., the incubation was terminated by the removal of medium and the addition of 0.25 ml of 0.6 N HCl to each well. The cells were scraped and transferred into microcentrifuge tubes, and the wells were again washed with 0.25 ml of 0.6 N HCl. The combined washes were treated with 0.9 ml of a mixture of chloroform:methanol (2:1), vortexed and centrifuged at 1000×g for 5 minutes at room temperature. The top aqueous layer, which was free of phospholipids, was removed and the remaining chloroform layer treated with 0.2 ml of methanol:water (1:1), vortexed and centrifuged. This aqueous layer was added to the previous aqueous layer and the samples dried in a vacuum concentrator. The dried samples were redissolved in 0.5 ml of 50 mM Tris-HCl, pH 8 and applied to Dowex AG 1-X8 formate (BIO-RAD) columns. The microcentrifuge tubes were washed twice with 0.5 ml of the same buffer and the washes applied to the columns for a total of 1.5 ml. The columns were sequentially washed with 4.5 ml H2O and 4.5 ml 60 mM ammonium formate and 5 mM sodium tetraborate to elute the free inositol and the glycerol phosphoinositol. IP1, IP2 and IP3 were sequentially eluted with 4 ml of 0.1 N formic acid in 0.2 M, 0.75 M ammonium formate and 1.1 M ammonium formate, respectively and collected in 1 ml fractions. Aliquots of 200 μl were counted for radioactivity in 1.5 ml of Ultima AF scintillation fluid (Packard). Peak radioactivities were used for the data analysis.

FSHR = experiment: ^125I-FSH binding to solubilized FSHR (NP-40); design: species or system human; conditions: solubilized mutant receptors
Description: Transfected cells were washed twice with ice cold 150 mM NaCl, 20 mM HEPES, pH 7.4 (buffer A). Cells were scraped on ice, collected in buffer A containing protease inhibitors (1 mM phenylmethylsulfonyl fluoride, 5 mM N-ethylmaleimide, and 10 mM EDTA), and pelleted by centrifugation at 1300×g for 10 minutes. Cells were resuspended in 0.6 ml of buffer A containing 1% NP-40, 20% glycerol, and the above protease inhibitors (buffer B), incubated on ice for 15 mm, and diluted with 5.4 ml of buffer A containing 20% glycerol plus the protease inhibitors (buffer C). The mixture was centrifuged at 100,000×g for 60 minutes. […] After incubation for 12 hours at 4° C., the solution was thoroughly mixed with 250 μl of buffer A containing bovine γ-globulin (5 μg/ml) and 750 μl of buffer A containing 20% polyethylene glycol 8000. After incubation for 10 minutes at 4° C., samples were pelleted at 1300×g for 30 mm and supernatants removed. Pellets were resuspended in 1.5 ml of buffer A containing 20% polyethylene glycol 8000, centrifuged, and counted for radioactivity.

B3: L^583 Y: human FSHR mutant, Tyr for L583 (protein)
chain: CHHRICHCSNRVFLCQESKVTEIPSDLPRNAIELRFVLTKLRVIQKGAFSGFGDLEKIEISQNDVLEVIEADVFSNLPKLHEIRIEKANNLLYINPEAFQNLPNLQYLLISNTGIKHLPDVHKIHSLQKVLLDIQDNINIHTIERNSFVGLSFESVILWLNKNGIQEIHNCAFNGTQLDELNLSDNNNLEELPNDVFHGASGPVILDISRTRIHSLPSYGLENLKKLRARSTYNLKKLPTLEKLVALMEASLTYPSHCCAFANWRRQISELHPICNKSILRQEVDYMTQARGQRSSLAEDNESSYSRGFDMTYTEFDYDLCNEVVDVTCSPKPDAFNPCEDIMGYNILRVLIWFISILAITGNIIVLVILTTSQYKLTVPRFLMCNLAFADLCIGIYLLLIASVDIHTKSQYHNYAIDWQTGAGCDAAGFFTVFASELSVYTLTAITLERWHTITHAMQLDCKVQLRHAASVMVMGWIFAFAAALFPIFGISSYMKVSICLPMDIDSPLSQLYVMSLLVLNVLAFVVICGCYIHIYLTVRNPNIVSSSSDTRIAKRMAMLIFTDFLCMAPISFFAISASLKVPYITVSKAKILLVLFHPINSCANPFLYAIFTKNFRRDFFILLSKCGCYEMQAQIYRTETSSTVHNTHPRNGHCSSAPRVTSGSTYILVPLSHLAQN
FSH dependent cAMP induction / EC50 compared with the wild type receptor, in words (human FSHR [2]): induced significant amounts of cAMP with reasonable EC50 values
IP induction (IP1, IP2, IP3, IPt) in response to FSH, in words (human FSHR [3]; HEK 293 cells): produced a small amount of IPt
IPt (CPM) (human FSHR [3]): 440 ± 17 CPM

B6: L^27A: human FSHR with Ala substituted for L27 (protein)
chain: B3 chain with L27A, Y584L
FSH binding / Kd compared with the wild type receptor, in words (human FSHR [1]): completely abrogated hormone binding
FSH binding to receptors solubilized in NP-40 (FSHR): did not bind

B7: D^26A: human FSHR with Ala substituted for D26 (protein)
chain: B3 chain with D26A, Y584L
FSH binding / Kd compared with the wild type receptor, in words (human FSHR [1]): completely abrogated hormone binding
FSH binding to receptors solubilized in NP-40 (FSHR): did not bind

B8: L^14A: human FSHR with Ala substituted for L14 (protein)
chain: B3 chain with L14A, Y584L
FSH binding / Kd compared with the wild type receptor, in words (human FSHR [1]): improved hormone binding
FSH binding / Kd compared with the wild type receptor, in words (human FSHR [1]; listed as FSHR^L14A): lower than the wild type value
FSH dependent cAMP induction / EC50 compared with the wild type receptor, in words (human FSHR [2]): lower than the wild type value

B9: C^15A: human FSHR with Ala substituted for C15 (protein)
chain: B3 chain with C15A, Y584L
FSH binding / Kd compared with the wild type receptor, in words (human FSHR [1]): abolished hormone binding
FSH binding to receptors solubilized in NP-40 (FSHR): did not bind

B10: wild type: wild type human FSH receptor expressed in HEK 293 cells (protein)
chain: B3 chain with Y584L
Kd (human FSHR [1]; ^125I-FSH binding, Scatchard plots, HEK 293 cells): 4 nM
IPt (CPM) (human FSHR [3]): 1,660 ± 240 CPM

B11: L^583 F: human FSHR mutant, Phe for L583 (protein)
chain: B3 chain with Y584F
FSH dependent cAMP induction / EC50 compared with the wild type receptor, in words (human FSHR [2]): induced significant amounts of cAMP with reasonable EC50 values

More lines, main results first:

FSH dependent cAMP induction / EC50 compared with the wild type receptor, in words (human FSHR [2]): lower than the wild type value
B1: N^10A: human FSHR with Ala substituted for N10 (protein)
chain: B3 chain with N10A, Y584L
FSH binding / Kd compared with the wild type receptor, in words (human FSHR [1]): improved hormone binding
FSH binding / Kd compared with the wild type receptor, in words (human FSHR [1]; listed as FSHR^N10A): lower than the wild type value

FSH dependent cAMP induction / EC50 compared with the wild type receptor, in words (human FSHR [2]): induced a marginal level of cAMP
B2: L^583 Q: human FSHR mutant, Gln for L583 (protein)
chain: B3 chain with Y584Q

reduction (improvement) of the EC50 value of cAMP induction compared with wild type (human FSHR [2]; FSH dependent cAMP): 3 fold
FSH dependent cAMP induction / EC50 compared with the wild type receptor, in words (human FSHR [2]): considerably lower EC50 value
B4: S^18A: human FSHR with Ala substituted for S18 (protein)
chain: B3 chain with S18A, Y584L
FSH binding / Kd compared with the wild type receptor, in words (human FSHR [1]): higher Kd value

FSH binding to receptors solubilized in NP-40 (FSHR): did not bind
B5: P^24A: human FSHR with Ala substituted for P24 (protein)
chain: B3 chain with P24A, Y584L
FSH binding / Kd compared with the wild type receptor, in words (human FSHR [1]): completely abrogated hormone binding

FSH dependent cAMP induction / EC50 compared with the wild type receptor, in words (human FSHR [2]): did not produce cAMP
B12: L^583 A: human FSHR exoloop 3 mutant, Ala for L583 (protein)
chain: B3 chain with Y584A
